Residue numbers refer to the chain shown, from its start. Numbers in names are those of the source.
B1: A-15B08 (antibody, V domains shown)
VH: QVQLKESGPGLVAPSQSLSITCTISGFSLTSYGVHWVRQPPGKGLEWLVVIWSDGSTTYNSTLKSRLSISKDNSKSQVFFKMNSLQTDDTAMYYCARHYDYDGDWFAYWGQGTLVTVSA
VL: QIVLTQSPAIMSASLGERVTMTCTASSRVSSNSLHWYQQKPGSSPKLWIYSTSNLASGVPARFSGSGSGTSYSLTISSMEAEDAATYYCHQYLRSPPTFGGGTKLEIK
notes: mouse hybridoma antibody; also called A-15B08 (hybridoma)
B2: A2-3B06 (antibody, V domains shown)
VH: QVQLKESGPGLVAPSQSLSITCTISGFSLTTYGVHWVRQPPGKGLEWLVVIWSDGSTTYNSALKSRLNITKDNSKSQVFLKMNSLQTDDTAMYYCVRHGGLLRRDAMDYWGQGTSVTVSS
VL: B1 VL with R28S, L34F, I49L
notes: mouse hybridoma antibody
B3: C-14D12 (antibody, V domains shown)
VH: QVQLKESGPDLVAPSQSLSITCTVSGFSLTDYGVHWVRQPPGKGLEWLVVIWSDGSTTYNSALKSRLSITKDTSKRQVFLKMNSLQTDDTAMYYCARHAPSFIRYGSRYDALDYWGQGTSVTVSS
VL: B1 VL with M21L, R28S, S30T, N32S, S33F, L93H
notes: mouse hybridoma antibody; also called C-14D12 (hybridoma)
B4: A-15B08-T62A: human IgG4 chimera variant of A-15B08, Thr62 to Ala in CDRH2; VH SEQ ID NO:135, VL SEQ ID NO:26 (antibody, V domains shown)
VH: B1 VH with T62A
VL: B1 VL
modifications: human IgG4 constant regions; A-15B08-T62A VH Sequence; A-15B08 VL Sequence
B5: A-3A08: hybridoma clone positive on K562 cells (antibody, V domains shown)
VH: B2 VH
VL: B1 VL with R28S, L34F, I49L
B6: A2-6C10: hybridoma clone positive on K562 cells (antibody, V domains shown)
VH: B2 VH
VL: B1 VL with R28S, L34F, I49L
B7: A2-8H11: hybridoma clone positive on K562 cells (antibody, V domains shown)
VH: B2 VH
VL: B1 VL with R28S, L34F, I49L

Legend:
[1] = biological target: T1, purified recombinant human α5β1 integrin heterodimer, 6×His tagged (rh-α5β1); Acro Biosystems, cat. no. … (human, UniProt P08648 42-995; P05556 21-728); test: BLI (Octet), supernatant mAb on anti-mouse IgG Fc sensor, 20 nM rh-α5β1
T1 construct: bought recombinant heterodimer; also called rh-α5β1-6×His tagged protein; His-tagged-α5β1
T1 sequence (P08648 42-995 limits assumed, form in doubt, chain 1 of 2): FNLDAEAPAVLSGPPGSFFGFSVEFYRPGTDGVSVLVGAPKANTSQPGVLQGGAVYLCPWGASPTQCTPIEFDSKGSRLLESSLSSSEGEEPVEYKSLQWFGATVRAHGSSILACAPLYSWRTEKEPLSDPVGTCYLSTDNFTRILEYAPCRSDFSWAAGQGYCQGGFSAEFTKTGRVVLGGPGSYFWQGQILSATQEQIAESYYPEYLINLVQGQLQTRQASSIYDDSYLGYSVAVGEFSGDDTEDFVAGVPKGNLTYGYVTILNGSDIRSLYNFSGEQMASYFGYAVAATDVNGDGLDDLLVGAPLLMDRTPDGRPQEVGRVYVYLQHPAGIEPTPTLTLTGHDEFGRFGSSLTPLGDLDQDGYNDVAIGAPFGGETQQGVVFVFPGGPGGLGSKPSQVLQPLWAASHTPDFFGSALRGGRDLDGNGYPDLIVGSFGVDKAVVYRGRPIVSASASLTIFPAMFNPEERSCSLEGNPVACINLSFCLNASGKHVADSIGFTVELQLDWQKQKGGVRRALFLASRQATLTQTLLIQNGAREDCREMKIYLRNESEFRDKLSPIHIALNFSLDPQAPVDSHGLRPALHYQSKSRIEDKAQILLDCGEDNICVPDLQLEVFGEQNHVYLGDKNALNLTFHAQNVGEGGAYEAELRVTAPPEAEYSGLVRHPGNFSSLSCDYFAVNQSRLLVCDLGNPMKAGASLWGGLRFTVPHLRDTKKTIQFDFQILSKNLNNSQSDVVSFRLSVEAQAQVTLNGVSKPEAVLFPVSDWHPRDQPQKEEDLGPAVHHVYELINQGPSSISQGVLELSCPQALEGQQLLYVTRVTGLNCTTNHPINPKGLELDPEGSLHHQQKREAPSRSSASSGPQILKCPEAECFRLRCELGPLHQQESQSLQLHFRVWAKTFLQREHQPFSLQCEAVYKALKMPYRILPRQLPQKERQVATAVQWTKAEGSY
T1 sequence (P05556 21-728 limits assumed, form in doubt, chain 2 of 2): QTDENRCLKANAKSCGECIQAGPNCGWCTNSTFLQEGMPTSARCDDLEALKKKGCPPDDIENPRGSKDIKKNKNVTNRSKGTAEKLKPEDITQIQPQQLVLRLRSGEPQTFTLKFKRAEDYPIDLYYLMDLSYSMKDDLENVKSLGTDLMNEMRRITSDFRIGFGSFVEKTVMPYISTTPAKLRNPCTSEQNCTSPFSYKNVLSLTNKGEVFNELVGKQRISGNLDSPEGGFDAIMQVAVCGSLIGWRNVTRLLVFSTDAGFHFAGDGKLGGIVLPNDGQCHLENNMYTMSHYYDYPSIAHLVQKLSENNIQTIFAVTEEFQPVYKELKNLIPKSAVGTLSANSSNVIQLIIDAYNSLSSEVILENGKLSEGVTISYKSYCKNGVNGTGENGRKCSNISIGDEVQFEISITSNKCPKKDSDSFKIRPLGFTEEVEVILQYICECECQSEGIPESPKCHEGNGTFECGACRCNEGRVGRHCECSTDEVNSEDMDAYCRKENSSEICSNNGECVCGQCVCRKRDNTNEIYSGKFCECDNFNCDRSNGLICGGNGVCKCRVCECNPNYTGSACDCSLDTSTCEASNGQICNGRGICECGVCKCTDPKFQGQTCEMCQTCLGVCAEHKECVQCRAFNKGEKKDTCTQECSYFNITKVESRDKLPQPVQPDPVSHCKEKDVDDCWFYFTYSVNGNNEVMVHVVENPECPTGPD
Text: Anti-Mouse IgG Fc biosensors were used to load each clone supernatant. Assay steps were as follows: Sensor Check (30s)-->Load Ab (700s)-->Quench (480s)-->Baseline(480s)-->Ab Assoc. (600s)-->Dissoc. (600s).

[2] = biological target: T1, purified recombinant human α5β1 …; test: ELISA, inhibition of rh-α5β1-His binding to coated FN, purified hybridoma mAb
Protocol: Immulon4 HBX ELISA 96-well plates were coated with FN by incubation overnight at 4° C. with 2.5 μg/mL human FN (R&D Systems, Minneapolis, MN 55413, cat. no. 1918-FN) in 1×PBS (0.01M phosphate buffer and 0.154M NaCl, pH 7.4). Plates were then washed 3 times with Wash Buffer (1× Tris Buffered Saline containing 0.05% Tween20), blocked with 2% BSA in 1×TBS for 2 hours at room temperature (RT). […] Isotype control antibody (Control Ab; Ms IgG2a EMD Millipore Corp, Billerica, MA, cat. no. PP102) was used to normalize data across different assay runs. […] Following 1 hour at RT, the wells were washed 3 times, incubated with biotinylated Anti-6×His-Tag Ab (Invitrogen, Carlsbad, CA, cat. no. MAI-21315-BTIN) at 1:1000 in Standard Diluent for 1 hour, washed 3 times, incubated for 30 minutes with poly-HRP Streptavidin (Thermo Fisher Scientific, Waltham, MA, cat. no. N200), washed 4 times, incubated with TMB substrate (Thermo Fisher Scientific, Waltham, MA, cat. no. N301) for 2-5 minutes, followed by addition of ELISA Stop Solution (Invitrogen, Carlsbad, CA, cat. no. SS04). Absorbance 450 nm was measured. Data points were normalized to the isotype Control Ab values at each concentration and reported as % Absorbance 450 nm normalized to Control Ab. Non-linear regression analysis was used to fit curves (4-parameter) to the data using GraphPad Prism version 9.0.2 (GraphPad Software, LLC, San Diego, CA).

[3] = biological target: T2, recombinant human α5β1 integrin (rh-α5β1; R&D Systems, cat. no. 3230-A5) (human, UniProt P08648 42-995; P05556 21-728); test: ELISA, coated rh-α5β1, supernatant 1:10
T2 construct: bought recombinant heterodimer
T2 sequence (P08648 42-995 limits assumed, form in doubt, chain 1 of 2): as the sequence (P08648 42-995 limits assumed, form in doubt, chain 1 of 2) above
T2 sequence (P05556 21-728 limits assumed, form in doubt, chain 2 of 2): as the sequence (P05556 21-728 limits assumed, form in doubt, chain 2 of 2) above
Protocol: Plates were washed 3 times with Wash Buffer (1× Tris Buffered Saline containing 0.05% Tween20), blocked with 2% BSA in 1×TBS (made from 10× Thermo Scientific Blocker BSA (10×) in TBS; Thermo Fisher Scientific, Waltham, MA, cat. no. 37520) for 2 hours at room temperature (RT) then incubated with hybridoma supernatants diluted 1:10 with Standard Diluent (2% BSA, 1×TBS, 0.05% Tween20). […] Absorbance 450 nm was measured.

[4] = biological target: T3, binding of α5β1 integrin to fibronectin (FN) (Homo sapiens, UniProt P05556+P08648); test: Quantitative FN inhibition (FN-blocking) assay in ELISA format; assay type: biochemical; details: by ELISA
T3 construct: purchased Acro Biosystems IT1-H52W5
T3 sequence (P08648 42-894 limits assumed): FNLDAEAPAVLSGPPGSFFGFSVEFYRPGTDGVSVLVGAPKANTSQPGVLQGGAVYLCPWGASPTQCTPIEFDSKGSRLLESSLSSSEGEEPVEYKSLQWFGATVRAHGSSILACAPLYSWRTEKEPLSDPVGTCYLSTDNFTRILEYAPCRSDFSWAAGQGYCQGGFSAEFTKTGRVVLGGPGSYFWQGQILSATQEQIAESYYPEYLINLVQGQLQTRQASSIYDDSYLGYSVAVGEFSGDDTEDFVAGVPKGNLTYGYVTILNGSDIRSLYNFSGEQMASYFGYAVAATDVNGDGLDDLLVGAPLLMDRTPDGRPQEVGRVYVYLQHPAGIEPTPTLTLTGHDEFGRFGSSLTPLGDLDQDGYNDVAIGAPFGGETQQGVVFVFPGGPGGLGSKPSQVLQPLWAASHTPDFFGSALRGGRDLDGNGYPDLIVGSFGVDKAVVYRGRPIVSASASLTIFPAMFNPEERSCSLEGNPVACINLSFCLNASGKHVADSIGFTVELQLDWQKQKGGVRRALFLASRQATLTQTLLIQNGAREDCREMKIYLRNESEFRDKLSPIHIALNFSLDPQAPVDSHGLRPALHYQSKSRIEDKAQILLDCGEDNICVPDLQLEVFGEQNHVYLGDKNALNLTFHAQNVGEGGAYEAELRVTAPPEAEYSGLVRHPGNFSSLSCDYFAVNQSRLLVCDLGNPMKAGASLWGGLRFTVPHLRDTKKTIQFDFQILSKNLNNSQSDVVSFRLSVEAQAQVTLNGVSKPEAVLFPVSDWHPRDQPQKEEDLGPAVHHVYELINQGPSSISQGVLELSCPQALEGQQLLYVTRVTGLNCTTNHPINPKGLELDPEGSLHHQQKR
T3 sequence (P08648 895-995 limits assumed): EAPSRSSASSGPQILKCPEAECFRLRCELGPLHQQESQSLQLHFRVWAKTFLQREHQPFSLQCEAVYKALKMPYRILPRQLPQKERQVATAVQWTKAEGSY
T3 sequence (P05556 21-728 limits assumed): as the sequence (P05556 21-728 limits assumed, form in doubt, chain 2 of 2) above
Text: To determine whether the 9 unique hybridoma clones selected as described in Example 4 were able to inhibit the binding of α5β1 integrin to fibronectin (FN), the antibodies were first purified from hybridoma supernatants by Protein A chromatography, protein concentrations measured by BCA assay (Pierce™ BCA Protein Assay Kit; Thermo Fisher Scientific, Waltham, MA, cat. no. 23225) and then tested in a quantitative FN inhibition assay in an ELISA format.
Immulon4 HBX ELISA 96-well plates were coated with FN by incubation overnight at 4° C. with 2.5 μg/mL human FN (R&D Systems, Minneapolis, MN 55413, cat. no. 1918-FN) in 1×PBS (0.01M phosphate buffer and 0.154M NaCl, pH 7.4). Plates were then washed 3 times with Wash Buffer (1× Tris Buffered Saline containing 0.05% Tween20), blocked with 2% BSA in 1×TBS for 2 hours at room temperature (RT). Antibodies were diluted in Standard Diluent (2% BSA, 1×TBS, 0.05% Tween20) containing 0.1 μg/mL rh-α5β1-6×His tagged protein (Acro Biosystems, Newark, DE, cat. no. IT1-H52W5), to generate an 11 point 1:3 antibody dilution series ranging from 10,000 ng/mL to 0.17 ng/mL. Isotype control antibody (Control Ab; Ms IgG2a EMD Millipore Corp, Billerica, MA, cat. no. PP102) was used to normalize data across different assay runs. For the assays, 100 uL of the antibody dilution series/His-tagged-α5β1 mixture was added to the wells after the blocking solution was removed and wells were washed 3 times. Following 1 hour at RT, the wells were washed 3 times, incubated with biotinylated Anti-6×His-Tag Ab (Invitrogen, Carlsbad, CA, cat. no. MAI-21315-BTIN) at 1:1000 in Standard Diluent for 1 hour, washed 3 times, incubated for 30 minutes with poly-HRP Streptavidin (Thermo Fisher Scientific, Waltham, MA, cat. no. N200), washed 4 times, incubated with TMB substrate (Thermo Fisher Scientific, Waltham, MA, cat. no. N301) for 2-5 minutes, followed by addition of ELISA Stop Solution (Invitrogen, Carlsbad, CA, cat. no. SS04). Absorbance 450 nm was measured. Data points were normalized to the isotype Control Ab values at each concentration and reported as % Absorbance 450 nm normalized to Control Ab. Non-linear regression analysis was used to fit curves (4-parameter) to the data using GraphPad Prism version 9.0.2 (GraphPad Software, LLC, San Diego, CA).
Freeze-thaw stability was tested on a small aliquot of each chimera antibody by overnight storage at −80° C. followed by thaw on ice, repeated three times. […] IC50s were calculated by non-linear regression analysis curve-fitting (4-parameter) of the ELISA data (FIG. 5) using GraphPad Prism version 9.0.2 (GraphPad Software, LLC, San Diego, CA). […]

[5] = biological target: T4, recombinant mouse α5β1 (rm-α5β1) (Mus musculus, UniProt P09055+P11688); test: Plate-based ELISA cross-reactivity to rm-α5β1; assay type: binding; details: hybridoma supernatant diluted 1:10; plate coated with rm-α5β1
T4 construct: purchased R&D Systems 7728-A5
T4 sequence (P11688 45-898 limits assumed): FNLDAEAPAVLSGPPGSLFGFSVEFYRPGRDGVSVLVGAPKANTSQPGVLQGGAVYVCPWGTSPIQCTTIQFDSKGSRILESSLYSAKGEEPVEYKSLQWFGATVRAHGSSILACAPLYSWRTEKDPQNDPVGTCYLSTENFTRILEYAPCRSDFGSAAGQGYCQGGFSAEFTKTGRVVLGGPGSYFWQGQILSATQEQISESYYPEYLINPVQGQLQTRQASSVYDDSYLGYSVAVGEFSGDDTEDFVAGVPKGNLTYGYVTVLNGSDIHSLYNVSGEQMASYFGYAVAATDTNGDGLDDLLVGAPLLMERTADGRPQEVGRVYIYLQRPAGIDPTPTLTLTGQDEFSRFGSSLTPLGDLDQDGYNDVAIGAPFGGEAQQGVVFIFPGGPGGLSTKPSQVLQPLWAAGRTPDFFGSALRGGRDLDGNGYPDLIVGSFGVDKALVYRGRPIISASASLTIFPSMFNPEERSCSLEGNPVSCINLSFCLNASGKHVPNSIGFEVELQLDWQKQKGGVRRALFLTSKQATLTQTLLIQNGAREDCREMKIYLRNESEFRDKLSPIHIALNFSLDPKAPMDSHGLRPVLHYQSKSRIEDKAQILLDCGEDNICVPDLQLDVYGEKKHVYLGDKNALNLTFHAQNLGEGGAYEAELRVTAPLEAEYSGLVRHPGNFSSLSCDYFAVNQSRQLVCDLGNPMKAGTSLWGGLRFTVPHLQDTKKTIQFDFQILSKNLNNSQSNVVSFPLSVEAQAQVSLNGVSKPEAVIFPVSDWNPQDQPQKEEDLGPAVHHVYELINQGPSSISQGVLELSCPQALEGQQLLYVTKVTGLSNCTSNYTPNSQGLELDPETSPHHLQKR
T4 sequence (P11688 899-999 limits assumed): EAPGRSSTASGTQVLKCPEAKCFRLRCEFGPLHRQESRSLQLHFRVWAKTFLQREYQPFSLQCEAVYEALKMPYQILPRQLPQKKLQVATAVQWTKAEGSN
T4 sequence (P09055 21-728 limits assumed): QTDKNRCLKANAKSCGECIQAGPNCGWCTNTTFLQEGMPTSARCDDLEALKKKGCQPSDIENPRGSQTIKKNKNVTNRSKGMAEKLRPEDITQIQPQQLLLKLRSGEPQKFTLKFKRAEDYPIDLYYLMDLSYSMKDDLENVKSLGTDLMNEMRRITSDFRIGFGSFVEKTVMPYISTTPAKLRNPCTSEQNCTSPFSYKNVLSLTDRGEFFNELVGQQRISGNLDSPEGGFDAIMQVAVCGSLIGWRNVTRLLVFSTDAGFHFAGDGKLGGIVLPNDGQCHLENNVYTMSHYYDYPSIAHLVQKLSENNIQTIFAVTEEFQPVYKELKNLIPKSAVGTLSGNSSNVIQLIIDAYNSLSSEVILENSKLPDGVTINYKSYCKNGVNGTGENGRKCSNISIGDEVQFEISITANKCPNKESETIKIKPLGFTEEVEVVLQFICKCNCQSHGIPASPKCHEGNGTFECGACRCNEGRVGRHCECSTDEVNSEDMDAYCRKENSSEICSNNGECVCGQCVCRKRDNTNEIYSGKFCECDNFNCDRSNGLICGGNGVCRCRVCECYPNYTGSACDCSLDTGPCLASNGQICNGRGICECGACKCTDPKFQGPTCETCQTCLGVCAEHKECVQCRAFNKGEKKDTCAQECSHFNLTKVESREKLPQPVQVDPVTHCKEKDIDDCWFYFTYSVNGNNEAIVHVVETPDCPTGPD
Protocol: (§1) The 249 positive hybridoma supernatants selected as described in Example 1 were screened for reactivity to rh-α5β1 in a plate-based ELISA. Immulon4 HBX ELISA 96-well plates (Thermo Fisher Scientific, Waltham, MA, cat. no. 3855) were coated with rh-α5β1 (R&D Systems, Minneapolis, MN 55413, cat. no. 3230-A5), at 1 μg/mL in PBS supplemented with 0.5 mM MgCl2, MnCl2 and CaCl2 and incubated overnight at 4° C. Plates were washed 3 times with Wash Buffer (1× Tris Buffered Saline containing 0.05% Tween20), blocked with 2% BSA in 1×TBS (made from 10× Thermo Scientific Blocker BSA (10×) in TBS; Thermo Fisher Scientific, Waltham, MA, cat. no. 37520) for 2 hours at room temperature (RT) then incubated with hybridoma supernatants diluted 1:10 with Standard Diluent (2% BSA, 1×TBS, 0.05% Tween20). Following a 1 hour incubation at RT, wells were washed 3 times, incubated with biotinylated goat anti-mouse secondary antibody at 1:8000 dilution (Invitrogen, Carlsbad, CA, cat. no. 62-6540) for 1 hour, washed 3 times, then incubated for 30 minutes with poly-HRP Streptavidin (Thermo Fisher Scientific, Waltham, MA, cat. no. N200), washed 4 times, incubated with TMB (Thermo Fisher Scientific, Waltham, MA, cat. no. N301) for 5-10 minutes, followed by addition of ELISA Stop Solution (Invitrogen, Carlsbad, CA, cat. no. SS04). Absorbance 450 nm was measured.
In addition, hybridomas were tested for cross-reactivity to recombinant mouse α5β1 (rm-α5β1; R&D Systems, Minneapolis, MN 55413; cat. no. 7728-A5) using the same protocol as above except that the plates were coated with rm-α5β1.

rh-α4β1 = biological target: T5, rh-α4β1 (Homo sapiens, UniProt P05556+P13612); test: Plate-based ELISA reactivity to rh-α4β1 (α5 subunit specificity); assay type: binding; details: hybridoma supernatant diluted 1:10; plate coated with rh-α4β1
T5 construct: purchased R&D Systems 3230-A5 & 5668-A4
Protocol: as §1
In parallel the 249 hybridomas were screened for specificity to the human α5 subunit by testing for reactivity to rh-α4β1 (R&D Systems, Minneapolis, MN 55413; cat. no. 3230-A5 & 5668-A4). Any hybridoma that reacted to both rh-α4β1 and rh-α5β1 is likely to be β1 subunit specific and not considered α5 specific. Using the protocol described above, 29 hybridoma supernatants reacted strongly (>1.0 Absorbance 450 nm) with rh-α4β1 and were not considered to be α5 specific.

[6] = biological target: T6, recombinant human α5β1 integrin (rh-α5β1) (Homo sapiens, UniProt P05556+P08648); test: Plate-based ELISA reactivity to rh-α5β1; assay type: binding; details: selected for further characterization among α5 specific hybridomas (28 selected)
T6 construct: purchased R&D Systems 3230-A5
T6 sequence (P08648 42-894 limits assumed): as the sequence (P08648 42-894 limits assumed) above
T6 sequence (P08648 895-995 limits assumed): as the sequence (P08648 895-995 limits assumed) above
T6 sequence (P05556 21-728 limits assumed): as the sequence (P05556 21-728 limits assumed, form in doubt, chain 2 of 2) above
Protocol: as §1

| Molecule | Kd [1] [nM] | koff [1] [s⁻¹] | kon [1] [M⁻¹ s⁻¹] | % Max Inhibition [2] [%] | Absorbance 450 nm Mouse α5β1 [5] | also measured |
| --- | --- | --- | --- | --- | --- | --- |
| B1 | 1.31 | 0.000431 | 328000 | 96 |  |  |
| B2 | 4.74 | 0.00137 | 289000 | 93 |  | Absorbance 450 nm [3]: 2.03 |
| B3 | 0.379 | 9.94e-05 | 263000 | 96 |  |  |
| B4 |  |  |  |  |  | class of FN binding blocker [4]: strong blockers of FN binding |
| B5 |  |  |  |  | 0.6708 |  |
| B6 |  |  |  |  | 0.0551 | Absorbance 450 nm Human α4β1 (rh-α4β1): 0.0609; Selected Human α5 Specific [6]: Yes |
| B7 |  |  |  |  | 0.0515 | Absorbance 450 nm Human α4β1 (rh-α4β1): 0.0595; Selected Human α5 Specific [6]: Yes |

Reference: patent publication US20240279345A1, “ALPHA 5 BETA 1 INTEGRIN BINDING AGENTS AND USES THEREOF” (PASITHEA THERAPEUTICS CORP., priority 2021, published 2024)
